# Assay: yeast display, Sf9 membrane polyspecificity reagent, FACS + sequencing; frameworks hold sequencing errors
# Procedure, shortened: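 Genes from sorted yeast were amplified by colony PCR, read by MiSeq 2 × 250 sequencing and filtered on CDR length. These cells carried a synthetic nanobody library in Saccharomyces cerevisiae BJ5465 and were sorted by FACS into low and high (top ~1%) gates on anti-HA and streptavidin fluorescence. Polyreactivity is labelled according to the gate of origin.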
row,Sequence,polyreactivity (PSR sort gate)
1,QVQLVESGGGLVQAGGSLRLSCAASGSTFWGYAMAWYRQAPGKERELVATINQSAGSTYYADSVKGRFTISRDNAKNTVYLQMNSLKPEDTAVYYCAAEARVQFSYDYWGQGTQVTVSS,low polyreactivity
2,QVQLVESGGGLVQAGGSLRLSCAASGSTFWGYAMGWSRPAPGKERELVATITTGGGGTYYADSVKGRFTISRDNAKNTVYLQMNSLKPEDTAVYYCAARLRDGRTPRTEYDYWGQGTQVTVSS,low polyreactivity
3,QVQLVESGGGLVQAGGSLRLSCAASGSTFWGYTMGWYRPAPGKERELVAAITGSGGSTNYADSVKGRFTISRDNAKNTVYLQMNSLKPEDTAVYYCATQGITPSNSYDYWGQGTQVTVSS,low polyreactivity
4,QVQLVESGGGLVQAGGSLRLSCAASGSTFWKYAMGWYRQAPGKEREFVAAITRSGGNTYYADSVKGRFTISRDNAKNTVYLQMNSLKPEDTAVYYCAKVYKLITSYRGFGYWGQGTQVTVSS,high polyreactivity
5,QVQLVESGGGLVQAGGSLRLSCAASGSTFWLYAMGWYRQAPGKERELVAAIRSGDRTNYADSVKGRFTISRDNAKHTVYLQMNSLKPEDTAVYYCAVRRWGTSFVEDDYWGQGTQVTVSS,low polyreactivity
6,QVQLVESGGGLVQAGGSLRLSCAASGSTFWPNAMGWYRQAPGKERELVAAITGGGGTNYADSVKGRFTISRDNAKNTVYLQMNSLKPEDTAVYYCAAKKVNSRSHVKYYYWGQGTQVSVSS,high polyreactivity
7,QVQLVESGGGLVQAGGSLRLSCAASGSTFWPYAMGWYRQAPGKERELVAAITSSGGSTYYADSVKGRFTISRDNAKNTVYLQMNSLKPEETAVYYCAADWSNLGAYDYWGQGTQVTVSS,low polyreactivity
8,QVQLVESGGGLVQAGGSLRLSCAASGSTFWPYTMGWYRQAPGKERELVAAISLSGGSTYYADSVKGRFTISRDNAKNTVYLQMNSLKPEDTAVYYCAAEGGYQNWHYLYDYWGQGTQVTVSS,low polyreactivity
9,QVQLVESGGGLVQAGGSLRLSCAASGSTFWSYTMGWYRQAPGKERELVARITGRGGSTYYADSVKGRFTISRDNAKNTVYLLMNSLKPEDTAVYYCAAGGGRYGFYRFDYWGQGTQVTVSS,low polyreactivity
10,QVQLVESGGGLVQAGGSLRLSCAASGSTFWTNAMGWNRQAPGKERELVATITYSTGTYADSVKGRFTISRDNAKNTVYLQMNSLKPEDTAVYYCAATGVPGWVGFDYWGQGTQVSVSS,low polyreactivity
11,QVQLVESGGGLVQAGGSLRLSCAASGSTFWVNALGWSRQAPGKERELVAVITVTGSRTYYADSVKGRFTISRDNAKNTVYLQMNTLKPEDTAVYYCAADRRRVQYKFDYWGQGTQVTVSS,low polyreactivity
12,QVQLVESGGGLVQAGGSLRLSCAASGSTFWVNAMGWYRQAPGKERELVAAISNSGGSTYYADSVKGRFTISRDNAKNTVYLQMNSLKPEDTAVYYCAAAGGVDYDYWGQGTQVTVSS,low polyreactivity
13,QVQLVESGGGLVQAGGSLRLSCAASGSTFWVNAMGWYRQAPGKERELVAAITVRGTSTYYADSVKGRFTISRDNAKNTVYLQMNSLKPEDTAVYYCAKGSLGSTRYYYWGQGTQVTVSS,low polyreactivity
14,QVQLVESGGGLVQAGGSLRLSCAASGSTFWVYGMGWSRQAPGKERELVADITSIGGSTYYADSVKGRFTISRDNAKNTVYLQMNSLKPEDTAVYYCAARETWYPYYWMGYWGQGTQVTVSS,high polyreactivity
15,QVQLVESGGGLVQAGGSLRLSCAASGSTFWYNDMGWYRQAPGKESELVAAITWTGDGTYYADTVKGRFTISRDNAKNTVYLQMNSLKPEDTAVYYCAAAYFQWSTSIVGLDAWYDYWGQGTQVTVSS,low polyreactivity
16,QVQLVESGGGLVQAGGSLRLSCAASGSTFWYYAMGWYRQAPGKEREFVAAITTSAGRTYYADSVKGRFTISRDNAKNTVYLQMNSLKPEDTAVYYCAAEPRQYWEYNYWGQGTQVTVSS,high polyreactivity
17,QVQLVESGGGLVQAGGSLRLSCAASGSTFWYYAMGWYRQAPGKERELVAAINGSGSRTYYADSVKGRFTISRDNAKNTVYLQMNSLKPEDTAVYYCAAGSLGRYYFKLDYWGQGTQVTVSS,high polyreactivity
18,QVQLVESGGGLVQAGGSLRLSCAASGSTFWYYAMGWYRQAPGKERELVAAISVRGGSTYYADSVKGRFTISRDNAKNTVYLQMNSLKPEETGVYYCAAVSYKSHRYDYWGQGTQVTVSS,high polyreactivity
19,QVQLVESGGGLVQAGGSLRLSCAASGSTFWYYAMGWYRQAPGKERELVAAITRGASTNYADSVKGRFTISRDNAKNTVYLQMNSLKPEDTAVYYSAAGPARWKGYYWGQGTQVTVSS,high polyreactivity
20,QVQLVESGGGLVQAGGSLRLSCAASGSTFWYYAMGWYRQAPGKERELVAAITSSGSTYYADSVKGRFTISRDNAKNTVYLQMNSLKPEDTAVYYCAAEQWYGYASYDYWGQVTQVTVSS,high polyreactivity
21,QVQLVESGGGLVQAGGSLRLSCAASGSTFWYYAMGWYRQAPGKERELVADITISGGSTYYSDSVKGRFTISRDNAKNTVYLQMNSLKPEDTAVYYCATDDTHRVGWFDYWGQGTQVTVSS,low polyreactivity

row,Sequence,polyreactivity (PSR sort gate)
1,QVQLVESGGGLVQAGGSLRLSCAASGSTFWYYAMGWYRQAPGKERELVADITYSGVSTYYADSVKGRFTISRDNAKNTVYLQMNSLKPEDTAVYYCNADWGSVNGYSGYYYWGQGTQVNVSS,low polyreactivity
2,QVQLVESGGGLVQAGGSLRLSCAASGSTFWYYAMGWYRQAPGKERELVASITYSGGSTYYADSVKGRFTISRDNAKNTVYLQMNSLKPEDSAVYYCAAEGYYSNYHYWGQGTQVTVSS,low polyreactivity
3,QVQLVESGGGLVQAGGSLRLSCAASGSTFWYYGMGWYRQAPGKERELVAAITRGGSTYYADSVKGRFTISRDNAKNTVYLQMNSLKPEDTAVYYCAARPRYRAPYGYWGQGTQVTVSS,high polyreactivity
4,QVQLVESGGGLVQAGGSLRLSCAASGSTFWYYGMGWYRQAPGKERELVAAITRGGSTYYADSVKGRFTISRDNAKNTVYLQMNSLKPEDTAVYYCARAPSYSTGVSIRDYWGQGTQVTVSS,high polyreactivity
5,QVQLVESGGGLVQAGGSLRLSCAASGSTFYAKAMGLYRQAPGKEREFVAVITQSGGSTYYADSVKGRFTISRDNAKNTVYLQMNSLKPEDTAVYYCAKTHYRRSLSMYYWGQGTQVTVSS,low polyreactivity
6,QVQLVESGGGLVQAGGSLRLSCAASGSTFYANAMGWYRQAPGKERELVAAIDWSGATTYYADSVKGRFTISRDTAKNTVYLQMNSLKPEDTAVYYCAAYRYRPHVHRYYRYDYWGQGTQVTVSS,high polyreactivity
7,QVQLVESGGGLVQAGGSLRLSCAASGSTFYAYAMGWYRQAPGKERELVAAITSRGGSTYYADSVKGRFTISRDNAKYTVYLELISLKPEDTAVYYCDARTCWWSRYYGSWGQGTQVTVSS,high polyreactivity
8,QVQLVESGGGLVQAGGSLRLSCAASGSTFYAYTMGWYRQAPGKARELFGTISSSGGRTNYADSVKGRFTISRDNAKNTVYLQMNSLKPEDTAVYYCAARSRVRNLVNGYTGLWYDYWGQGTQVTVSS,high polyreactivity
9,QVQLVESGGGLVQAGGSLRLSCAASGSTFYDNAMGWYRQAPGKERELVASIRSGGSTKYADSVKGRFTISRDNAKNTVYLQMNSLKPEDTAVYYCATAFIVPFPGSDYWGQGTQVTVSS,low polyreactivity
10,QVQLVESGGGLVQAGGSLRLSCAASGSTFYDYAMGWYRQAPGKERELVAAINGNGDSTYYADSVKGRFTISRDNAKNTVYLQMNSLKPEDTAVYYCAASGYRRYYGYDYWGQGTQVTVSS,low polyreactivity
11,QVQLVESGGGLVQAGGSLRLSCAASGSTFYDYAMGWYRQAPGKERELVASISISGGSTYADSVKGRFTISRDNAKNTVYLQMNSLKPEDTAVYYCAADSWGIGYGPDYEYWGQGTQVTVSS,low polyreactivity
12,QVQLVESGGGLVQAGGSLRLSCAASGSTFYDYAMGWYRQAPGKERELVASISISGGSTYADSVKGRFTISRDNAKNTVYLQMNSLKPEDTAVYYCNAKNYSWDDYYWVPDYEYWGQGTQVTVSS,low polyreactivity
13,QVQLVESGGGLVQAGGSLRLSCAASGSTFYDYVMGWYRQAPGKERELVAAITGDGTTDYADSVKGRFTISRDNAKNTVYLQMNSLKPEDTAVYYCNADISLDYDYWGQGTQVTVSS,low polyreactivity
14,QVQLVESGGGLVQAGGSLRLSCAASGSTFYENAMGWYRQAPGKERELVAAITWSGGRTYYADSVKGRFTISRDNAKNTVYLQMNSLKPEDTAVYYCNARARSRKFYYWGQGTQVTVSS,high polyreactivity
15,QVQLVESGGGLVQAGGSLRLSCAASGSTFYFNAMGWYRQAPGKEREFVAAITYSGGSTNYADSVKGRFTISRDNAKNTVYLQMNSLKPEDTAVYYCAARRYSYYYWYDYWGQGTQVTVSS,high polyreactivity
16,QVQLVESGGGLVQAGGSLRLSCAASGSTFYFNAMGWYRQAPGKERELVATISDNDGSTNYADSVKGRFTISRDNAKNTVYLQMNSLKPEDTAVYYCNADWYYYYEEDDYWGQGTQVTVSS,low polyreactivity
17,QVQLVESGGGLVQAGGSLRLSCAASGSTFYFYAMGLFRQAPGKERELVAAITSSGGSTYYAESVKGRFTISRDNAKNTVYLQMISQKPEDTAVYYCATTYPQRYNGYDYWGQGTQVTVSS,low polyreactivity
18,QVQLVESGGGLVQAGGSLRLSCAASGSTFYGKAMGWYRQAPGKERELVDTISWSGGSTYYADSVKGRFTISRDNAKNTVYLQMNSVKPEDTAVYYCNAEITTKSLVTRYSWYGGDYWRQGTQVTVSS,low polyreactivity
19,QVQLVESGGGLVQAGGSLRLSCAASGSTFYGNAMGWYRQAPGKERELVGAIRWRGGRTYYADSVKGRFTISRDNANNTVYLQMNSLKPEDTAVYYCNALPGVSHTQYDRVGYWGQGTQVTVSS,high polyreactivity
20,QVQLVESGGGLVQAGGSLRLSCAASGSTFYGNDMGWYRQAPGKERELVAAISSGGSTNYADSVKGRFTISRDNAKNTVYLQMNSLKPEDTAVYYCAADDTPDTISGSDYWGQGTQVTVSS,low polyreactivity
